{"source": "paper PMC10983868", "about": "(bioRxiv, 2025)", "binders": {"B1": {"name": "scFv4-C-Myc construct displayed on yeast (scFv, V domains shown)", "VH": "EVQLVESGGGLVQPGGSLRLSCAASGFDLKEKYIHWVRQAPGKGLEWVARINVKTGSTRYADSVKGRFTISADTSKNTAYLQMNSLRAEDTAVYYCSRENRFGALTVWGQGTLVTVSS", "VL": "DIQMTQSPSSLSASVGDRVTITCTTSSYVPMLVSWYQQKPGKAPKLLIYSSVIRAPGVPSRFSGSRSGTDFTLTISSLQPEDFATYYCSVLQKDGNLVFGQGTKVEIK"}}, "key": {"[1]": {"biological_target": "Clostridium difficile toxin B (TcdB) (Clostridium difficile, UniProt P18177)", "sequence (P18177 whole entry)": "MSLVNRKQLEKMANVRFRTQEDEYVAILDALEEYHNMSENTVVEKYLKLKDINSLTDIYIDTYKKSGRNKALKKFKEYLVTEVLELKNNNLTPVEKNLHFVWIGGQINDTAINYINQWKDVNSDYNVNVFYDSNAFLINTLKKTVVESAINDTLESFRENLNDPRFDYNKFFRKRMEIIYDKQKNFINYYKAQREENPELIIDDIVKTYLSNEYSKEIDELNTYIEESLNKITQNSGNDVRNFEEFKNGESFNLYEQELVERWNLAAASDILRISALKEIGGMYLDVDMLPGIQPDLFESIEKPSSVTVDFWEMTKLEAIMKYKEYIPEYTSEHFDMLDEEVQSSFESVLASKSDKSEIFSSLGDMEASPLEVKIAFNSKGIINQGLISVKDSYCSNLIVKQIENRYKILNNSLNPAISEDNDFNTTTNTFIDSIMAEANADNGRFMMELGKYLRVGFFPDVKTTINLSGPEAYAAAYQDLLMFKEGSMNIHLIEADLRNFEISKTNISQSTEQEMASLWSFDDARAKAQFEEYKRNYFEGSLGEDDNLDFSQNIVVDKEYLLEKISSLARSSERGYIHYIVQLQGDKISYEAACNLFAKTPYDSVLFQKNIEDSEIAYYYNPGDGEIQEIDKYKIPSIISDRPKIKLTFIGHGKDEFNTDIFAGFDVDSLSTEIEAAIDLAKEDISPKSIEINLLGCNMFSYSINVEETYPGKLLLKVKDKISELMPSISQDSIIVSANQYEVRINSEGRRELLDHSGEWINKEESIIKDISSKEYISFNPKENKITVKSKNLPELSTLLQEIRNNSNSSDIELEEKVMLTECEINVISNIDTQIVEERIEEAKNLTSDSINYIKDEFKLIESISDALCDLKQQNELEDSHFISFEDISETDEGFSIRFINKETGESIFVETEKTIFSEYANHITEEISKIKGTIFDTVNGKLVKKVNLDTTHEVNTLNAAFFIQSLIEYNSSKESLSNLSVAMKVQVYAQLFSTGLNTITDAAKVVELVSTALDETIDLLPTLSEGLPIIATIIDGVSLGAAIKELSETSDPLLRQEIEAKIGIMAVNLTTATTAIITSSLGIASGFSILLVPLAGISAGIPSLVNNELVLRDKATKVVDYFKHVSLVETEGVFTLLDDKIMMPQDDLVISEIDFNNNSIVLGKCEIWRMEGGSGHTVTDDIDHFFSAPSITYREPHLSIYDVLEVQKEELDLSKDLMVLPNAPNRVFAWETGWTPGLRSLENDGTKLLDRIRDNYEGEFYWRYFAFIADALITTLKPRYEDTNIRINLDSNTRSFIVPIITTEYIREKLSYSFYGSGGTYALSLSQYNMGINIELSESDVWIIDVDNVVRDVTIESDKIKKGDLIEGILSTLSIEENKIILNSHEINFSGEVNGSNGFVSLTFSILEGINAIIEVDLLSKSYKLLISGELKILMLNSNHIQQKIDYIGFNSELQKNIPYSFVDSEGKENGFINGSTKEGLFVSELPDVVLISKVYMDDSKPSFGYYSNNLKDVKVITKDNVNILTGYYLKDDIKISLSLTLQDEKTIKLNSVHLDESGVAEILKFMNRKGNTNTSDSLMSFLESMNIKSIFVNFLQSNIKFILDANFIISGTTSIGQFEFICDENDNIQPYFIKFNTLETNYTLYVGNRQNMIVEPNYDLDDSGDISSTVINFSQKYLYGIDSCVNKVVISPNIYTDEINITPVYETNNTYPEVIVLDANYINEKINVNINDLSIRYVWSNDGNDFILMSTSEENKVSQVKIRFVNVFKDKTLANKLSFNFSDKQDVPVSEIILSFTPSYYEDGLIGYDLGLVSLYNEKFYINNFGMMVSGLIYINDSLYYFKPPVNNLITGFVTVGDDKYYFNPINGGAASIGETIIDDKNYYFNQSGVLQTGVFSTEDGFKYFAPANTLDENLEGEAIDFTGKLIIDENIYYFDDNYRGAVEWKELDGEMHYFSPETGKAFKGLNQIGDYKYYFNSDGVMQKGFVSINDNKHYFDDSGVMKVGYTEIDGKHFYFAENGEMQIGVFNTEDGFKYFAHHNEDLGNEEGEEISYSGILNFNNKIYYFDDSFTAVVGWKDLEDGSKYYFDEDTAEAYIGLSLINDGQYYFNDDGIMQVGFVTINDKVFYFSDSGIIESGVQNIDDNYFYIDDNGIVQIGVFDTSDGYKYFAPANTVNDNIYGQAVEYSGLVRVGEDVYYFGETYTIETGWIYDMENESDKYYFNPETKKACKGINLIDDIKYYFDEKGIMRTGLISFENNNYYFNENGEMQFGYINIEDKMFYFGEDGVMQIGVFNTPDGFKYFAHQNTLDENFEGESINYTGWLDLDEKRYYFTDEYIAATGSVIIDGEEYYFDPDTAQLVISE", "assay": "flow cytometry on cells"}, "[2]": {"biological_target": "soluble biotinylated TcdB fragment (1401-1616) (Clostridioides difficile VP10463, UniProt P18177, biotin)", "sequence (P18177 1401-1616)": "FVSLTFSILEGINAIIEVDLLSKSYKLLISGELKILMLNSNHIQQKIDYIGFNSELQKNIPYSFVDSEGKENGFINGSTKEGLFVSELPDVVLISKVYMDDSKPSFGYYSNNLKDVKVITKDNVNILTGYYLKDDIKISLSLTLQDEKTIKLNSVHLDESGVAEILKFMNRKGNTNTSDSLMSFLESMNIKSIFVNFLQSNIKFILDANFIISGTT", "assay": "flow cytometry on cells"}}}
{"binder": "B1", "values": [{"measurement": "binding result", "setting": "[1]", "result": "binds"}, {"measurement": "binding result", "setting": "[2]", "result": "binds"}]}
